{"source": "patent US20250161474A1", "about": "“ANTIBODY-DRUG CONJUGATES TARGETING EGFR/C-MET AND PREPARATION METHODS AND USES THEREOF” (Sichuan Kelun-Biotech Biopharmaceutical Co., Ltd., priority 2023, published 2025)", "key": {"[1]": {"assay": "Hydrophilicity of bispecific antibodies (HIC, TSKgel Butyl-NPR)", "type": "physicochemical", "conditions": "for Hydrophobicity value: (RT sample − RT hydrophilic control)/(RT hydrophobic control − RT hydrophilic control), Tagitanlimab = 0, Sacituzumab = 1; for Retention time: HIC, TSKgel Butyl-NPR column, 30°C, smaller = more hydrophilic", "procedure": "Column temperature: 30° C., detection wavelength: 280 nm, flow rate: 0.5 ml/min, mobile phase A: 1.5 mol/L (NH4)2SO4, mobile phase B: 25 mmol/L Na2HPO4, pH=7.0, 25% IPA. A suitable amount of the test sample was diluted with diluent (0.75 mol/L (NH4)2SO4) to make a solution of 1.0 mg/ml as the test sample solution. The control antibodies were Tagitanlimab as a hydrophilic control (disclosed in WO2017148424) and Sacituzumab as a hydrophobic control (disclosed in WO2019114666). (Both antibodies are produced by Kelun-Biotech.) Each of the control antibodies were diluted with the diluent to make a solution of 1.0 mg/ml as the system suitability solution. About […] of sample was injected and analyzed in gradient elution: 0-3 min, maintaining mobile phase A of 95% and mobile phase B of 5%; 3-40 min, mobile phase B from 5% to 100%; 40-45 min, maintaining mobile phase A of 95% and mobile phase B of 5%. The hydrophobicity value of the test sample was calculated according to the control sample with the formula: (retention time of the test sample−retention time of the hydrophilic control)/(retention time of the hydrophobic control−retention time of the hydrophilic control), and the smaller the retention time and hydrophobicity value, the better the hydrophilicity of the antibody."}, "[2]": {"assay": "Hydrophilicity of ADCs (HIC, TSKgel Butyl-NPR)", "type": "physicochemical", "conditions": "for Hydrophobicity value: (RT sample − RT hydrophilic control)/(RT hydrophobic control − RT hydrophilic control), Tagitanlimab = 0, Sacituzumab = 1; for Retention time: HIC, TSKgel Butyl-NPR column, 30°C, smaller = more hydrophilic", "procedure": "The column temperature was 30° C., the detection wavelength was 280 nm, and the flow rate was: 0.5 mL/min, mobile phase A: 1.5 mol/L (NH4)2SO4; mobile phase B: 25 mmol/L Na2HPO4, pH=7.0, 25% isopropanol alcohol (IPA). For analysis, a test sample of ADC was diluted to 1 mg/mL solution using the diluent 0.75 mol/L (NH4)2SO4 to provide a test solution. The hydrophilic control antibody was Tagitanlimab and the hydrophobic control antibody was Sacituzumab. Control antibodies were produced by Sichuan Kelun-Biotech Biopharmaceutical Co., Ltd. using the diluent to make a 1 mg/mL test solution as the system suitability solution. […] After testing, the hydrophobicity value of the test sample was calculated based on the control sample. The calculation formula was: (Retention time of test sample−Retention time of hydrophilic control)/(Retention time of hydrophobic control−Retention time of hydrophilic control)."}}, "data": [{"substance": "Sacituzumab", "values": [{"measurement": "Hydrophobicity value", "setting": "[1]", "value": 1.00}, {"measurement": "Retention time", "setting": "[1]", "value": 19.001, "unit": "min"}, {"measurement": "Hydrophobicity value", "setting": "[2]", "value": 1.00}, {"measurement": "Retention time", "setting": "[2]", "value": 19.00, "unit": "min"}]}, {"substance": "Tagitanlimab", "values": [{"measurement": "Hydrophobicity value", "setting": "[1]", "value": 0.00}, {"measurement": "Retention time", "setting": "[1]", "value": 11.009, "unit": "min"}, {"measurement": "Hydrophobicity value", "setting": "[2]", "value": 0.00}, {"measurement": "Retention time", "setting": "[2]", "value": 11.01, "unit": "min"}]}]}
